For one substance, Kd, koff and kon results are on record in paper PMC8856988.

The target of assay [1] is Skeletal muscle myosin (rabbit) (rabbit). In words: BLI; SkM immobilised on Octet Red Amine Reactive Second-Generation Biosensor; FXI or PK in solution; 30 mM Hepes, pH 7.4, 0.01% Tween-20, 0.1% PEG, 50 mM NaCl, 30 °C.
Assay [2] has the same target. In words: ELISA; SkM (10 μg/ml, sodium bicarbonate pH 9.3) immobilised on microtiter plate, blocked with 0.5% BSA; purified FXI 0–10 nM in 30 mM Hepes, pH 7.4, 130 mM NaCl, 2 h, room temperature; bound FXI detected with anti-FXI mAb AHXI-5061 and HRP-goat antimouse; apparent.
Assay [3] shares this target. In words: ELISA; SkM immobilised on microtiter plate; diluted pooled plasma (endogenous FXI) in 30 mM Hepes, pH 7.4, 130 mM NaCl, 2 h, room temperature; bound FXI detected with anti-FXI mAb AHXI-5061, calculated from the curve of purified FXI; apparent.

Chain of Skeletal muscle myosin (rabbit) (rabbit) (Q28641 whole entry, chain 1 of 3): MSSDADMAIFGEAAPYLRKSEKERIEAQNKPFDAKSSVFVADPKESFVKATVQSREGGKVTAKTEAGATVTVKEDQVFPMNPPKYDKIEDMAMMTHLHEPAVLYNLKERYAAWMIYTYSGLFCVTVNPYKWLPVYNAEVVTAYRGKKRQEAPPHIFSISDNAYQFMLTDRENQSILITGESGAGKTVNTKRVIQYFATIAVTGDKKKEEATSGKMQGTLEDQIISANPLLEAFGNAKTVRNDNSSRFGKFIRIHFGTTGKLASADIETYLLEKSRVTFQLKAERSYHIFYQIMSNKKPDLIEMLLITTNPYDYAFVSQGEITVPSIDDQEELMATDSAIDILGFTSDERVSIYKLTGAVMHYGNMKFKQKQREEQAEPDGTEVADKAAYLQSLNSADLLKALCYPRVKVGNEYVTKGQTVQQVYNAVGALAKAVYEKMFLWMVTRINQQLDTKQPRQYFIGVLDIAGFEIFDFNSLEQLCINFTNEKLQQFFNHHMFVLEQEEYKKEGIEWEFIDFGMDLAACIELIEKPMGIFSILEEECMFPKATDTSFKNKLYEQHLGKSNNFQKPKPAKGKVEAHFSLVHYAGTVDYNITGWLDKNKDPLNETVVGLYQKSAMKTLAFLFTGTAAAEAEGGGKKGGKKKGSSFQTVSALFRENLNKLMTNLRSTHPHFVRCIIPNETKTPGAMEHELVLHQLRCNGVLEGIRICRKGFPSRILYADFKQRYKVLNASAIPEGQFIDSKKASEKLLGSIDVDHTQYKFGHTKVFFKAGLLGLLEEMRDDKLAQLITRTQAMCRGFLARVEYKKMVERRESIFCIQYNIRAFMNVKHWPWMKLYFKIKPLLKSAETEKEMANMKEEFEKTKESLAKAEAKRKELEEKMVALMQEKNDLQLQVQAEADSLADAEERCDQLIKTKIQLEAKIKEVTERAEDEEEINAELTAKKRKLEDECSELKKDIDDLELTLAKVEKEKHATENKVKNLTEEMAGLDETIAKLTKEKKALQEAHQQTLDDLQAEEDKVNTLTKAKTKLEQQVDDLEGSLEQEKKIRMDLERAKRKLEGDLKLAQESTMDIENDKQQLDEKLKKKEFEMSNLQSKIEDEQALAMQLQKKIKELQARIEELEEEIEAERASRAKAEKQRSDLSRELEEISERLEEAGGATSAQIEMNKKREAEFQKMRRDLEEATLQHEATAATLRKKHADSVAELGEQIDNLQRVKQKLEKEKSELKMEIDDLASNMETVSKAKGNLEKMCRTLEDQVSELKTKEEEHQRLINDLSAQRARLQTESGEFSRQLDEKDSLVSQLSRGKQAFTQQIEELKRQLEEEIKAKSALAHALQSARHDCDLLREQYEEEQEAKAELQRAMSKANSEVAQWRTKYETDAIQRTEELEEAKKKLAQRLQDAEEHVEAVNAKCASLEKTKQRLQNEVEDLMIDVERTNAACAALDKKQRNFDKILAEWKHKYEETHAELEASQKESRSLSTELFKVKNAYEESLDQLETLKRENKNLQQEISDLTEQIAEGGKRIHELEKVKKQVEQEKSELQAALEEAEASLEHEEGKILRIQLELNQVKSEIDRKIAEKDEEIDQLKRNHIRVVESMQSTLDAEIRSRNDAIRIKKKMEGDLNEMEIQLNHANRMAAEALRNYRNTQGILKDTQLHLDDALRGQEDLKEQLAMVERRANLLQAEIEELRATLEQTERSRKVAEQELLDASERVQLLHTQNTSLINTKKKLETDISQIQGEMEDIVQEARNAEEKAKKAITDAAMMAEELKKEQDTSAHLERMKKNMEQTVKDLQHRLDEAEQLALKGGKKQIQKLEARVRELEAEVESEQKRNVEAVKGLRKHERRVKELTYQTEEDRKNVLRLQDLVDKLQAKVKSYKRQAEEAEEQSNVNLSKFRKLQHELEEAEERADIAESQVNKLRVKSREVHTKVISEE
Chain of Skeletal muscle myosin (rabbit) (rabbit) (P02602 2-192, chain 2 of 3, further chain): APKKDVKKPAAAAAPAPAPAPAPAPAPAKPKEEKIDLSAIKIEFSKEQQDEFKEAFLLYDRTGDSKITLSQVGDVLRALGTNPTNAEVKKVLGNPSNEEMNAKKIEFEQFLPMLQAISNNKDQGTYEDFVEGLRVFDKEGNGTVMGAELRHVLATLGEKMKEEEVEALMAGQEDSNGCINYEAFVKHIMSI
Chain of Skeletal muscle myosin (rabbit) (rabbit) (P02608 2-170, chain 3 of 3, further chain): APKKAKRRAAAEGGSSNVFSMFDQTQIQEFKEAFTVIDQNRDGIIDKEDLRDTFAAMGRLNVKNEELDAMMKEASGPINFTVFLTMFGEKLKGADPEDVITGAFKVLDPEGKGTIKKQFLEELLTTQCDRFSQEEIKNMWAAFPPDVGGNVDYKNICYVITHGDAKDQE

Consider Coagulation factor XI (natural protein), for which the Kd in assay [1] is 0.2 nM; in assay [2], 1.7 nM; in assay [3], 0.7 nM. In assay [1], this substance registered a koff of 0.000795 s⁻¹. The substance also yielded a kon in assay [1] of 3.87e+06 M⁻¹ s⁻¹.
